Experiment: NCT03131687: nausea, vomiting and diarrhea, new events per interval
Type: in vivo, human
Protocol: Clinical Study (NCT03131687) Supporting Maintenance Dose Embodiments A 6-month (26-week) Phase 2 double-blind clinical study is designed to evaluate the safety, efficacy, and PK/PD of 4 dose levels (1 mg, 5 mg, 10 mg and 15 mg respectively) of tirzepatide once weekly by subcutaneous injection compared with dulaglutide 1.5 mg. once weekly (QW) and placebo QW in patients with T2DM who have inadequate glycemic control with diet and exercise with or without a stable dose of metformin. Tirzepatide dose is up-titrated to the maintenance dose using the following weekly dose increments:
The study also has a 4-week follow up period. In addition to safety and efficacy for treating T2DM, efficacy endpoints include the effect of tirzepatide on HbA1c, FBG, body weight, lipids, and waist circumference compared with placebo and with dulaglutide 1.5 mg. The study also evaluates the effect of tirzepatide on GI tolerability, hypoglycemia, hypersensitivity reactions, and pancreatic safety, as well as the development of treatment-emergent anti-drug antibodies. Model-based dose response analyses are performed to predict potential for significant HbA1c lowering and weight loss in longer studies. Statistical Analyses: Efficacy: The primary efficacy outcome of HbA1c change from baseline to the 26-week endpoint is analyzed using a Bayesian dose-response model. Analyses are performed on the intention to treat population (mITT) analysis set. Supportive analysis of the primary efficacy outcome for the mITT dataset are the model for post-baseline measures (MMRM) with body mass index (BMI) (<30 kg/m^2, ≥30 kg/m^2), metformin use, treatment, visit, and treatment-by-visit interaction as fixed effects, baseline HbA1c as a covariate, and patient as a random effect. The mean weight change from baseline at 12 and 26 weeks, along with the mean change from baseline of HbA1c at 12 weeks, is analyzed using similar dose-response models as the primary analyses. The percentages of patients with ≥5% or ≥10% body weight loss, reaching the HbA1c target of ≤6.5% or ≤7.0% at 26 weeks, or requiring rescue therapy are analyzed using logistic regression with fixed effects of treatment and strata, and baseline as a covariate. The changes from baseline in FBG (fasting blood glucose), SMBG (self-monitored blood glucose) levels, waist circumference, and mean percentage change in lipids from baseline to 12 and 26 weeks are analyzed using a similar MMRM to the one used for the primary analyses. Table Abbreviations: Dula 1.5 mg=dulaglutide 1.5 mg once weekly; LY means tirzepatide, and LY 1 mg=tirzepatide 1 mg once weekly; LY 5 mg=5 mg once weekly; LY 10 mg=escalation dose group tirzepatide once weekly with highest dose of 10 mg; LY 15 mg=escalation dose group of tirzepatide once weekly with highest dose 15 mg; LOCF=last observation-carried-forward; N=number of patients; pbo=placebo; Week 26=mITT on-treatment data at Week 26 excluding data after study drug discontinuation or rescue drug initiation; mITT=modified intent-to-treat; SD=standard deviation. For Table 4, n=number of patients in the population with baseline and post-baseline value at the specified time point. For Table 6, LY10 mg=escalation dose group tirzepatide, once weekly with highest dose of 10 mg; escalation dose: (5 mg weeks 0 and 1), LY15 mg=escalation dose group tirzepatide, once weekly with highest dose of 15 mg; escalation dose: (5 mg weeks 0 and 1; 10 mg weeks 2 to 5); N=number of patients in specified group, m=number of patients who experienced new event during interval, FolUp=follow up, T/Wk=Time range, (week) and %=means percent patients spending at least some time in treatment group who experienced new event during interval. For Table 7, n is the number of patients with events meeting the criteria; N is number of patients in the population; % is percent of patients in treatment group experiencing the event.

[1] = LY10 mg (tirzepatide 5 mg weeks 0 and 1, then 10 mg once weekly), N = 51, Fol Up (follow up)
[2] = LY10 mg (tirzepatide 5 mg weeks 0 and 1, then 10 mg once weekly), N = 51, T/Wk 0
[3] = LY10 mg (tirzepatide 5 mg weeks 0 and 1, then 10 mg once weekly), N = 51, T/Wk 1
[4] = LY10 mg (tirzepatide 5 mg weeks 0 and 1, then 10 mg once weekly), N = 51, T/Wk 2
[5] = LY10 mg (tirzepatide 5 mg weeks 0 and 1, then 10 mg once weekly), N = 51, T/Wk 3
[6] = LY10 mg (tirzepatide 5 mg weeks 0 and 1, then 10 mg once weekly), N = 51, T/Wk 4
[7] = LY10 mg (tirzepatide 5 mg weeks 0 and 1, then 10 mg once weekly), N = 51, T/Wk 5
[8] = LY10 mg (tirzepatide 5 mg weeks 0 and 1, then 10 mg once weekly), N = 51, T/Wk 6
[9] = LY10 mg (tirzepatide 5 mg weeks 0 and 1, then 10 mg once weekly), N = 51, T/Wk 7
[10] = LY10 mg (tirzepatide 5 mg weeks 0 and 1, then 10 mg once weekly), N = 51, T/Wk 8
[11] = LY10 mg (tirzepatide 5 mg weeks 0 and 1, then 10 mg once weekly), N = 51, T/Wk 9
[12] = LY10 mg (tirzepatide 5 mg weeks 0 and 1, then 10 mg once weekly), N = 51, T/Wk 10
[13] = LY10 mg (tirzepatide 5 mg weeks 0 and 1, then 10 mg once weekly), N = 51, T/Wk 11
[14] = LY10 mg (tirzepatide 5 mg weeks 0 and 1, then 10 mg once weekly), N = 51, T/Wk 12
[15] = LY10 mg (tirzepatide 5 mg weeks 0 and 1, then 10 mg once weekly), N = 51, T/Wk >12 < 16
[16] = LY10 mg (tirzepatide 5 mg weeks 0 and 1, then 10 mg once weekly), N = 51, T/Wk >16 ≤ 20
[17] = LY10 mg (tirzepatide 5 mg weeks 0 and 1, then 10 mg once weekly), N = 51, T/Wk >20
[18] = LY15 mg (tirzepatide 5 mg weeks 0 and 1; 10 mg weeks 2 to 5; then 15 mg once weekly), N = 53, Fol Up (follow up)
[19] = LY15 mg (tirzepatide 5 mg weeks 0 and 1; 10 mg weeks 2 to 5; then 15 mg once weekly), N = 53, T/Wk 0
[20] = LY15 mg (tirzepatide 5 mg weeks 0 and 1; 10 mg weeks 2 to 5; then 15 mg once weekly), N = 53, T/Wk 1
[21] = LY15 mg (tirzepatide 5 mg weeks 0 and 1; 10 mg weeks 2 to 5; then 15 mg once weekly), N = 53, T/Wk 2
[22] = LY15 mg (tirzepatide 5 mg weeks 0 and 1; 10 mg weeks 2 to 5; then 15 mg once weekly), N = 53, T/Wk 3
[23] = LY15 mg (tirzepatide 5 mg weeks 0 and 1; 10 mg weeks 2 to 5; then 15 mg once weekly), N = 53, T/Wk 4
[24] = LY15 mg (tirzepatide 5 mg weeks 0 and 1; 10 mg weeks 2 to 5; then 15 mg once weekly), N = 53, T/Wk 5
[25] = LY15 mg (tirzepatide 5 mg weeks 0 and 1; 10 mg weeks 2 to 5; then 15 mg once weekly), N = 53, T/Wk 6
[26] = LY15 mg (tirzepatide 5 mg weeks 0 and 1; 10 mg weeks 2 to 5; then 15 mg once weekly), N = 53, T/Wk 7
[27] = LY15 mg (tirzepatide 5 mg weeks 0 and 1; 10 mg weeks 2 to 5; then 15 mg once weekly), N = 53, T/Wk 8
[28] = LY15 mg (tirzepatide 5 mg weeks 0 and 1; 10 mg weeks 2 to 5; then 15 mg once weekly), N = 53, T/Wk 9
[29] = LY15 mg (tirzepatide 5 mg weeks 0 and 1; 10 mg weeks 2 to 5; then 15 mg once weekly), N = 53, T/Wk 10
[30] = LY15 mg (tirzepatide 5 mg weeks 0 and 1; 10 mg weeks 2 to 5; then 15 mg once weekly), N = 53, T/Wk 11
[31] = LY15 mg (tirzepatide 5 mg weeks 0 and 1; 10 mg weeks 2 to 5; then 15 mg once weekly), N = 53, T/Wk 12
[32] = LY15 mg (tirzepatide 5 mg weeks 0 and 1; 10 mg weeks 2 to 5; then 15 mg once weekly), N = 53, T/Wk >12 < 16
[33] = LY15 mg (tirzepatide 5 mg weeks 0 and 1; 10 mg weeks 2 to 5; then 15 mg once weekly), N = 53, T/Wk >16 ≤ 20
[34] = LY15 mg (tirzepatide 5 mg weeks 0 and 1; 10 mg weeks 2 to 5; then 15 mg once weekly), N = 53, T/Wk >20

## tirzepatide [LY]
[1]
  Nausea Vomiting and Diarrhea: % patients who experienced new event during interval: 2.1%
  Nausea Vomiting and Diarrhea: m, number of patients who experienced new event during interval: 1
[2]
  Nausea Vomiting and Diarrhea: % patients who experienced new event during interval: 20%
  Nausea Vomiting and Diarrhea: m, number of patients who experienced new event during interval: 9
[3]
  Nausea Vomiting and Diarrhea: % patients who experienced new event during interval: 3.9%
  Nausea Vomiting and Diarrhea: m, number of patients who experienced new event during interval: 2
[4]
  Nausea Vomiting and Diarrhea: % patients who experienced new event during interval: 3.9%
  Nausea Vomiting and Diarrhea: m, number of patients who experienced new event during interval: 2
[5]
  Nausea Vomiting and Diarrhea: % patients who experienced new event during interval: 2.0%
  Nausea Vomiting and Diarrhea: m, number of patients who experienced new event during interval: 1
[6]
  Nausea Vomiting and Diarrhea: % patients who experienced new event during interval: 6.0%
  Nausea Vomiting and Diarrhea: m, number of patients who experienced new event during interval: 3
[7]
  Nausea Vomiting and Diarrhea: % patients who experienced new event during interval: 4.0%
  Nausea Vomiting and Diarrhea: m, number of patients who experienced new event during interval: 2
[8]
  Nausea Vomiting and Diarrhea: % patients who experienced new event during interval: 2.0%
  Nausea Vomiting and Diarrhea: m, number of patients who experienced new event during interval: 1
[9]
  Nausea Vomiting and Diarrhea: % patients who experienced new event during interval: 4.1%
  Nausea Vomiting and Diarrhea: m, number of patients who experienced new event during interval: 2
[10]
  Nausea Vomiting and Diarrhea: % patients who experienced new event during interval: 2.0%
  Nausea Vomiting and Diarrhea: m, number of patients who experienced new event during interval: 1
[11]
  Nausea Vomiting and Diarrhea: % patients who experienced new event during interval: 4.1%
  Nausea Vomiting and Diarrhea: m, number of patients who experienced new event during interval: 2
[12]
  Nausea Vomiting and Diarrhea: % patients who experienced new event during interval: m = 0; 0%
  Nausea Vomiting and Diarrhea: m, number of patients who experienced new event during interval: m = 0; 0%
[13]
  Nausea Vomiting and Diarrhea: % patients who experienced new event during interval: m = 0; 0%
  Nausea Vomiting and Diarrhea: m, number of patients who experienced new event during interval: m = 0; 0%
[14]
  Nausea Vomiting and Diarrhea: % patients who experienced new event during interval: 2.0%
  Nausea Vomiting and Diarrhea: m, number of patients who experienced new event during interval: 1
[15]
  Nausea Vomiting and Diarrhea: % patients who experienced new event during interval: 2.0%
  Nausea Vomiting and Diarrhea: m, number of patients who experienced new event during interval: 1
[16]
  Nausea Vomiting and Diarrhea: % patients who experienced new event during interval: 2.1%
  Nausea Vomiting and Diarrhea: m, number of patients who experienced new event during interval: 1
[17]
  Nausea Vomiting and Diarrhea: % patients who experienced new event during interval: 2.1%
  Nausea Vomiting and Diarrhea: m, number of patients who experienced new event during interval: 1
[18]
  Nausea Vomiting and Diarrhea: % patients who experienced new event during interval: 0.0%
  Nausea Vomiting and Diarrhea: m, number of patients who experienced new event during interval: 0
[19]
  Nausea Vomiting and Diarrhea: % patients who experienced new event during interval: 32.1%
  Nausea Vomiting and Diarrhea: m, number of patients who experienced new event during interval: 17
[20]
  Nausea Vomiting and Diarrhea: % patients who experienced new event during interval: 18.9%
  Nausea Vomiting and Diarrhea: m, number of patients who experienced new event during interval: 10
[21]
  Nausea Vomiting and Diarrhea: % patients who experienced new event during interval: 5.8%
  Nausea Vomiting and Diarrhea: m, number of patients who experienced new event during interval: 3
[22]
  Nausea Vomiting and Diarrhea: % patients who experienced new event during interval: 11.4%
  Nausea Vomiting and Diarrhea: m, number of patients who experienced new event during interval: 6
[23]
  Nausea Vomiting and Diarrhea: % patients who experienced new event during interval: 5.9%
  Nausea Vomiting and Diarrhea: m, number of patients who experienced new event during interval: 3
[24]
  Nausea Vomiting and Diarrhea: % patients who experienced new event during interval: 2.0%
  Nausea Vomiting and Diarrhea: m, number of patients who experienced new event during interval: 1
[25]
  Nausea Vomiting and Diarrhea: % patients who experienced new event during interval: 3.9%
  Nausea Vomiting and Diarrhea: m, number of patients who experienced new event during interval: 2
[26]
  Nausea Vomiting and Diarrhea: % patients who experienced new event during interval: 5.9%
  Nausea Vomiting and Diarrhea: m, number of patients who experienced new event during interval: 3
[27]
  Nausea Vomiting and Diarrhea: % patients who experienced new event during interval: 4.0%
  Nausea Vomiting and Diarrhea: m, number of patients who experienced new event during interval: 2
[28]
  Nausea Vomiting and Diarrhea: % patients who experienced new event during interval: 0.0%
  Nausea Vomiting and Diarrhea: m, number of patients who experienced new event during interval: 0
[29]
  Nausea Vomiting and Diarrhea: % patients who experienced new event during interval: 0.0%
  Nausea Vomiting and Diarrhea: m, number of patients who experienced new event during interval: 0
[30]
  Nausea Vomiting and Diarrhea: % patients who experienced new event during interval: 2.0%
  Nausea Vomiting and Diarrhea: m, number of patients who experienced new event during interval: 1
[31]
  Nausea Vomiting and Diarrhea: % patients who experienced new event during interval: 2.1%
  Nausea Vomiting and Diarrhea: m, number of patients who experienced new event during interval: 1
[32]
  Nausea Vomiting and Diarrhea: % patients who experienced new event during interval: 2.1%
  Nausea Vomiting and Diarrhea: m, number of patients who experienced new event during interval: 1
[33]
  Nausea Vomiting and Diarrhea: % patients who experienced new event during interval: 2.1%
  Nausea Vomiting and Diarrhea: m, number of patients who experienced new event during interval: 1
[34]
  Nausea Vomiting and Diarrhea: % patients who experienced new event during interval: 2.1%
  Nausea Vomiting and Diarrhea: m, number of patients who experienced new event during interval: 1
